Square brackets hold non-standard residues; d marks the D form. Ends that are not written are not given here. Arg(Me2a) = CN(C)C(=N)NCCC[C@H](N)C(=O)O
Target: TDRD3 (aa 520–633) (human, UniProt Q9H7E2 520-633)
Test: ITC

- Kd: > 500 µM
Binder: TG[Arg(Me2a)]ARARA [PIWIL1_R4me2a peptide (TGRme2aARARA)]

Source: PMC3281842 (2012)
